In publication PMC2173304:

Target: peptide corresponding to the cytoplasmic tail of lysosomal acid phosphatase (LAP) (UniProt P11117)
Assay: SPR

UniProt P11117, sequence (P11117 402-423): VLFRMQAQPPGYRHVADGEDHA

fold decrease in affinity against untreated AP2: > 4 fold
Substance: AP2 complex from pig brain, dephosphorylated with calf intestinal alkaline phosphatase
